Substitutions are numbered along the chain they refer to.
T1: MBP-HY5 (Arabidopsis thaliana, UniProt O24646 1-168)
T1 sequence: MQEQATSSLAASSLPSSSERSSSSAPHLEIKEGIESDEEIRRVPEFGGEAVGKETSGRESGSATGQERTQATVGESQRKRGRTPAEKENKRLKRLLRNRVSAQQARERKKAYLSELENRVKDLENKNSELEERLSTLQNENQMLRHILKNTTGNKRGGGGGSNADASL

B1: P2 (STOMAGEN promoter) (dsDNA)
DNA 1: TCCTCTGTATTTTCAAACTCTTATCTCTACGTGTGCACAAACCTCACCATTAGATGATAA
DNA 2: TTATCATCTAATGGTGAGGTTTGTGCACACGTAGAGATAAGAGTTTGAAAATACAGAGGA
B2: mP2 (Z-box mutated) (dsDNA)
DNA 1: B1 DNA 1 with T28A, C30A, G31A, T32A, G33A
DNA 2: B1 DNA 2 with C28T, A29T, C30T, G31T, A33T

Columns and labels:
MBP-HY5 [1] = target: T1, MBP-HY5; assay: EMSA; EMSA: 20 fmol biotin probe, ~1 ug protein, 20 ul binding buffer (composition not given), on ice 1 h; pull-down: 10 mM Tris-HCl pH 7.5, 50 mM KCl, 5 mM MgCl2, 2.5% glycerol, 0.05% NP-40, 5 ug salmon sperm DNA, 10 ug BSA, 4 C 1 h; conditions: protein: recombinant; tags: N-terminal MBP (pETG-40A); chain copies: 2; blunt
MBP-HY5 [2] = target: T1, MBP-HY5; assay: pull-down; 5 mM MgCl2; salmon sperm DNA; EMSA: 20 fmol biotin probe, ~1 ug protein, 20 ul binding buffer (composition not given), on ice 1 h; pull-down: 10 mM Tris-HCl pH 7.5, 50 mM KCl, 5 mM MgCl2, 2.5% glycerol, 0.05% NP-40, 5 ug salmon sperm DNA, 10 ug BSA, 4 C 1 h; conditions: protein: recombinant; tags: N-terminal MBP (pETG-40A); chain copies: 2; blunt

Binder	binding result (MBP-HY5 [1])	binding result (MBP-HY5 [2])
B1	binds	–
B2	–	no binding

Reference: publication PMC8184810, “Light regulates stomatal development by modulating paracrine signaling from inner tissues”
